Data as given in patent US20240016949A1 (SHANGHAI FUDAN ZHANGJIANG BIO PHARMACEUTICAL, published 2024).
Positions count from the first letter of the chain named.

T1: FcγRIIa (CD32a) (UniProt P12318 34-317, limits assumed)
T1 sequence (looked up): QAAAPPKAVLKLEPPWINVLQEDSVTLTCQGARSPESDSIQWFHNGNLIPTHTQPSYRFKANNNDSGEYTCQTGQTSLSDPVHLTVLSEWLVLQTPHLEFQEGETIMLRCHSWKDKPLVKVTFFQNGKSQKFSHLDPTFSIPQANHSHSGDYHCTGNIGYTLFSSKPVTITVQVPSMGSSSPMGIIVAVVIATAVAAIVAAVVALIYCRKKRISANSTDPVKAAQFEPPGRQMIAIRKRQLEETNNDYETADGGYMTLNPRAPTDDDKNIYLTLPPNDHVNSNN

B1: antibody-drug conjugate FDA028-LE14 (antibody, human IgG1, kappa)
light: not shown
heavy: QVQLQQWGAGLLKPSETLSLTCAVYGGSFSGYYWSWIRQPPGKGLEWIGEINHSGSTNYNPSLKSRVTISVETSKNQFSLKLSSVTAADTAVYYCARDKWTWYFDLWGRGTLVTVSSASTKGPSVFPLAPSSKSTSGGTAALGCLVKDYFPEPVTVSWNSGALTSGVHTFPAVLQSSGLYSLSSVVTVPSSSLGTQTYICNVNHKPSNTKVDKKVEPKSCDKTHTCPPCPAPPVAGGPSVFLFPPKPKDTLMISRTPEVTCVVVDVSHEDPEVKFNWYVDGVEVHNAKTKPREEQYNSTYRVVSVLTVLHQDWLNGKEYKCKVSNKALPAPIEKTISKAKGQPREPQVYTLPPSREEMTKNQVSLTCLVKGFYPSDIAVEWESNGQPENNYKTTPPVLDSDGSFFLYSKLTVDKSRWQQGNVFSCSVMHEALHNHYTQKSLSLSPGK
modifications: LE14 linker-drug as thioether on cysteines of reduced interchain disulfides; DAR 7.63 for the whole antibody
B2: antibody-drug conjugate FDA029-LE14 (antibody, human IgG1, kappa)
light: not shown
heavy: B1 heavy with P233E, V234F, A235E, P331S
modifications: LE14 linker-drug as thioether on cysteines of reduced interchain disulfides; DAR 7.82 for the whole antibody

Biological target: T1, FcγRIIa (CD32a)
Test: cell-based or functional assay

Binder	IC50 value (nM), killing activity on HSC Cell	IC50 value (nM), killing activity on K562 Cell
B1	334 nM	270 nM
B2	363 nM	323 nM
